The results in this text go back to patent US20220073609A1 (DENALI THERAPEUTICS, published 2022).

Where a chain is given by its changes, count along the chain named. No end group written: not given here.

Experiment [1] has as its target T1, Mouse TREM2 peptide (aa 149-163) (mouse, UniProt Q99NH8 149-163, also: biotinylated).
T1 construct: range 149-163; also called truncated stalk peptide, mouse
T1 peptide (looked up): SFEGAQVEHSTSRNQ
The experiment is described as follows: ELISA, biotinylated stalk peptide on streptavidin plate, anti-human kappa-HRP detection. As to the method:
(§1) TREM2 antibodies were evaluated for binding to human and mouse TREM2 stalk region peptides. […] Antibody binding to TREM2 stalk peptides was detected using standard sandwich ELISA. Briefly, a 96-well half-area ELISA plate was coated with streptavidin overnight at 4° C. The following day, biotinylated TREM2 stalk peptides diluted in 1% BSA/PBS were added to the plate and incubated for 1 hour. Antibodies diluted in 1% BSA/PBS were then added and incubated for 1 hour. Antibodies bound to peptide were detected with anti-human kappa-HRP secondary antibody (Bethyl Laboratories, Inc.) diluted in 1% BSA/PBS. Plates were assayed by reaction with a detection reagent (One-step TMB Ultra, Thermo) and measurement of absorbance at 450 nm (A450) by standard spectrophotometry instrumentation (BioTek®). Data are shown as normalized values (fold over background where background=isotype control).

The target of experiment [2] is T2, Human TREM2 peptide (aa 149-163) (human, also: biotinylated).
T2 construct: also called truncated stalk peptide containing the ADAM10/17 cleavage site
T2 peptide: SFEDAHVEHSISRSL
The description is as above. As to the method:
as §1

Experiment [3] deals with Mouse TREM2 peptide (aa 131-169) (mouse) (UniProt Q99NH8). Described as above.
Sequence of Mouse TREM2 peptide (aa 131-169) (mouse) (Q99NH8 131-169 limits assumed, form in doubt): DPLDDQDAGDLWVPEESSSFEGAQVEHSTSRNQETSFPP
Experiment [4] addresses Human TREM2 peptide (aa 129-172) (human). Described as above.
For experiment [5], the target named is T3, recombinant cynomolgus TREM2 ECD (cynomolgus, UniProt A0A2K5UY34 49-204).
T3 construct: extracellular domain; also called cyno TREM2
T3 sequence: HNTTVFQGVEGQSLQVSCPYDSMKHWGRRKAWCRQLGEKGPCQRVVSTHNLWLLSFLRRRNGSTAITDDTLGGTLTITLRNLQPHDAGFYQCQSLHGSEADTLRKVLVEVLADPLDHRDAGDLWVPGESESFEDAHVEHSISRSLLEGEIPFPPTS
The experiment is described as follows: SPR (Biacore), cynomolgus TREM2. As to the method: (§2) Surface plasmon resonance (Biacore™ 8K instrument) was used to measure anti-TREM2 antibody affinities for human and cynomolgus TREM2 ECD. Anti-TREM2 antibodies were captured using Human Fab Capture Kit (GE Healthcare Life Sciences, Catalog No. 28958325) on a Biacore Series S CM5 sensor chip (GE Healthcare Life Sciences, Catalog No. 29149604). Serial 3-fold dilutions of recombinant human or cynomolgus TREM2 were injected at a flow rate of 30 μL/min. Antibody binding was monitored for 300 seconds, followed by monitoring of antibody dissociation for 600+ seconds in HBS-EP+ running buffer (GE Healthcare Life Sciences, Catalog No. BR100669). The binding response was corrected by subtracting the RU value from a blank flow cell. A 1:1 Languir model of simultaneous fitting of kₒₙ, and koff was used for kinetics analysis.
(§3) The affinity of anti-TREM2 antibodies to human TREM2 and cynomolgus TREM2 were measured by Biacore (described in Example 1). The potency of anti-TREM2 antibodies were measured in healthy human volunteer CSF samples (Innovative Research) and healthy cynomolgus monkey CSF samples (Worldwide Primates), by MSD assay. The potency of each antibody was determined by its EC50. Briefly, MSD GOLD 96-well small spot streptavidin plates (MSD, Cat. No. L45SA) coated with capture antibody (biotinylated goat anti-human TREM2, R&D Systems, Cat. No. BAF1828) was incubated with biofluid samples diluted 1:3 in Assay Buffer (25% (v/v) MSD Blocker A (MSD, Cat. No. R93BA-A), 75% (v/v) TBST) for one hour at room temperature. After rinsing the wells with TBST, sulfo-tagged anti-TREM2 antibody was added in a serial dilution (4× dilution over 11 points) to the wells of the plate and incubated for one hour at room temperature. The wells were washed with TBST, and MSD Read Buffer (MSD, Cat. No. R92TC-3) was added to the wells. Signal from the samples were measured using an MSD Meso Sector 5600 device. EC50 values for each antibody was determined by four-parameter variable slope non-linear regression. Reference antibodies #1 and #2 correspond to 4C5 and 6E7 described in WO 2018/195506. Reference antibody #3 corresponds to AL2p-58 described in WO 2019/028292. The variable regions of reference antibody #1 are represented by SEQ ID NOS:73 and 74.

Another experiment deals with T4, sTREM2 in cynomolgus CSF (cynomolgus monkey, UniProt A0A2K5UY34 49-187).
T4 construct: domain: soluble TREM2 (sTREM2); also called soluble TREM2 in healthy cynomolgus monkey CSF
T4 sequence: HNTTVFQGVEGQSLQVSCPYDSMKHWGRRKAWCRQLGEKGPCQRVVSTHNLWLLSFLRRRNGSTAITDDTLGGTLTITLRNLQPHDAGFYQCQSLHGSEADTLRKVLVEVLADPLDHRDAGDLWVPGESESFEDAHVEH
Nature of the experiment: MSD assay, sTREM2 from CSF captured by biotinylated goat anti-human TREM2, sulfo-tagged test antibody titrated. As to the method: as §3, with “74. The variable regions of reference antibody #2 are represented by SEQ ID NOS:75 and 76. The variable regions of reference antibody #3 are represented by SEQ ID NOS:77 and 78.” for “74.”

The target of experiment [6] is T3, recombinant cynomolgus TREM2 ECD. The experiment is described as follows: SPR (Biacore 8K), antibody captured with Human Fab Capture Kit, recombinant TREM2 ECD injected, 1:1 fit. As to the method: as §2

Sequence of Human TREM2 peptide (aa 129-172) (human) (peptide, as listed by the source): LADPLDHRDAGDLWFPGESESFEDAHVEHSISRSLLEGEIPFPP

For the molecule Isotype control (antibody), the A450 fold over background (background = isotype control) in experiment [1], in experiment [2], in experiment [3] and in experiment [4] was 1 fold each time.

B1: Reference antibody #3 (antibody, V domains shown)
VH: QVQLVQSGAEVKKPGASVKVSCKASGYAFSSQWMNWVRQAPGQRLEWIGRIYPGGGDTNYAGKFQGRVTITADTSASTAYMELSSLRSEDTAVYYCARLLRNQPGESYAMDYWGQGTLVTVSS
VL: DVVMTQSPDSLAVSLGERATINCRSSQSLVHSNRYTYLHWYQQKPGQSPKLLIYKVSNRFSGVPDRFSGSGSGTDFTLKISRVEAEDVGVYYCSQSTRVPYTFGQGTKLEIK
notes: also called AL2p-58 (WO 2019/028292)
Take B1: the dissociation constant (Kd) in experiment [5] came out at 9.2 nM. The molecule further showed an EC50 with sTREM2 in cynomolgus CSF of 33.7 nM.

B2: CL0020188 (antibody, V domains shown)
VH: EVKLLDSGGGLVQAGGSLRLSCAGSGFTFTDFYMSWIRQPPGKAPEWLGVIRNKANGYTAGYNPSVKGRFTISRDNTQNILYLQMNTLRAEDTAIYYCARLTYGFDYWGQGVMVTVSS
VL: DIVMTQGALPNPVPSGESASITCQSSKSLLHSNGKTYLNWYLQRPGQSPQLLIYWMSTRASGVSDRFSGSGSGTDFTLKISSVEAEDVGVYYCQQFLEYPFTFGSGTKLEIK
notes: also called Clone CL0020188
B2: the “A450 fold over background (background = isotype control)” value in experiment [1] was 0.9 fold; in experiment [2], 3 fold. Besides, in experiment [6], the Kd is 2 nM.

B3: CL0020188-7 (antibody, V domains shown)
VH: EVQLVESGGGLVQPGGSLRLSCAASGFTFTDFYMSWVRQAPGKGLEWVSVIRNKANAYTAGYNPSVKGRFTISRDNSKNTLYLQMNSLRAEDTAVYYCARLTYGFDYWGQGTLVTVSS
VL: DIVMTQTPLSLPVTPGEPASISCQSSKSLLHSTGKTYLNWYLQKPGQSPQLLIYWMSTRASGVPDRFSGSGSGTDFTLKISRVEAEDVGVYYCQQFLEYPFTFGQGTKVEIK
notes: Humanized variant of CL0020188
For B3, in experiment [5], the Kd worked out at 2.8 nM. The molecule further yielded an EC50 with sTREM2 in cynomolgus CSF of 0.72 nM.

B4: CL0020188-4 (antibody, V domains shown)
VH: B3 VH with A24G, L45P, V48L, A57G
VL: B3 VL
notes: as for B3
For B4, in experiment [5], the Kd is 1.5 nM. In addition, the concentration giving a half-maximal response (EC50) in the experiment with sTREM2 in cynomolgus CSF was 0.28 nM.

B5: Reference antibody #1 (antibody, V domains shown)
VH: EVQLVQSGAEVKKPGESLKISCKGSGHSFTNYWIAWVRQMPGKGLEWMGIIYPGDSDTRYSPSFQGQVTISADKSISTAYLQWSSLKASDTAVYFCARQRTFYYDSSGYFDYWGQGTLVTVSS
VL: DIQMTQSPSSVSASVGDRVTITCRASQGISNWLAWYQQKPGKAPKLLIYAASSLQVGVPLRFSGSGSGTDFTLTISSLQPEDFATYYCQQADSFPRNFGQGTKLEIK
notes: also called 4C5 (WO 2018/195506)
Turning to B5, the Kd in experiment [5] was 14 nM. For the same molecule, in the experiment with sTREM2 in cynomolgus CSF, the EC50 came to 81.6 nM.

B6: Reference antibody #2 (antibody, V domains shown)
VH: B5 VH with H27Y, N31S, V93M, G108D
VL: B5 VL with N31S, V56N, L60S, Y87F, N97T
notes: also called 6E7 (WO 2018/195506)
For B6, the Kd in experiment [5] is 9.2 nM. The molecule also showed an EC50 with sTREM2 in cynomolgus CSF of 6.5 nM.

B7: CL0020123-5 (antibody, V domains shown)
VH: QVQLVQSGAEVKKPGASVKVSCKASGFSIEDFYIHWVRQAPGQGLEWMGWIDPEQGESKYAPKFQGRATITADTSTSTAYMELSSLRSEDTAVYYCHADHGNYGSTMDYWGQGTLVTVSS
VL: DIQMTQSPSSLSASVGDRVTITCHASQHINVWLSWYQQKPGKAPKLLIYKASNLHTGVPSRFSGSGSGTDFTLTISSLQPEDFATYYCQQGQTYPRTFGQGTKVEIK
notes: Humanized variant of CL0020123
Take B7: the Kd in experiment [5] was 9.3 nM. The response with sTREM2 in cynomolgus CSF was half-maximal at 49.4 nM (EC50).

B8: CL0020123 (antibody, V domains shown)
VH: EVQLQQSGAELVRSGASVKLSCTASGFSIEDFYIHWVKQRPEQGLEWIGWIDPENGDSKYAPKFQGKATMTADTSSNTAYLHLSSLTSEDTAVYYCHADHGNYGSTMDYWGQGTSVTVSS
VL: B7 VL with T5N, V15L, R18T, K42D, A43H, D70G, F83I, Q100G, V104L
notes: also called Clone CL0020123
B8: the “A450 fold over background (background = isotype control)” value in experiment [1] came to 0.9 fold. For the same molecule, the Kd in experiment [6] came to 5.7 nM.

B9: CL0020123-7 (antibody, V domains shown)
VH: B7 VH with Q55N, A68V
VL: B7 VL
notes: as for B7
As for B9, the Kd in experiment [5] worked out at 9.4 nM. Besides, a half-maximal response in the experiment with sTREM2 in cynomolgus CSF (EC50) required 16.9 nM.
